From paper PMC7065593 (Nature, 2019)

Biological target: Gαi1 subunit (human, UniProt P63096)
Assay: cryo-EM structure

binding result: binds
B1: hNTSR1(∆ICL3; residues 20-418, A85L, ∆282-291) (receptor)
chain: QRAQAGLEEALLAPGFGNASGNASERVLAAPSSELDVNTDIYSKVLVTAVYLALFVVGTVGNTVTLFTLARKKSLQSLQSTVHYHLGSLALSDLLTLLLAMPVELYNFIWVHHPWAFGDAGCRGYYFLRDACTYATALNVASLSVERYLAICHPFKAKTLMSRSRTKKFISAIWLASALLAVPMLFTMGEQNRSADGQHAGGLVCTPTIHTATVKVVIQVNTFMSFIFPMVVISVLNTIIANKLTVMVRQAAEQGQVCTVGGPGRVQALRHGVRVLRAVVIAFVVCWLPYHVRRLMFCYISDEQWTPFLYDFYHYFYMVTNALFYVSSTINPILYNLVSANFRHIFLATLACLCPVWRRRRKRPAFSRKADSVSSNHTLSSNATRETLY
